Reference: patent US20150125516, “TRANSFERRIN RECEPTOR APTAMERS AND APTAMER-TARGETED DELIVERY” (ALBERT EINSTEIN COLLEGE OF MEDICINE OF YESHIVA UNIVERSITY, published 2015)

What was measured:
[1] = target: transferrin receptor (TfR, CD71), native on human cells (Homo sapiens, UniProt P02786 P02786:1-760); assay: flow; apparent, Jurkat cells, RPMI 10% FBS, tRNA and ssDNA, 37 C 1 h; no staining of ATP-arrested cells; details: chain copies: 2 inferred; label: 32P (filter), AF488 or Atto647N (cells); stem with 12-nt asymmetric bulge, C-rich bulge, GNRA tetraloop
Sequence of transferrin receptor (TfR, CD71), native on human cells (P02786 whole entry, one chain of several): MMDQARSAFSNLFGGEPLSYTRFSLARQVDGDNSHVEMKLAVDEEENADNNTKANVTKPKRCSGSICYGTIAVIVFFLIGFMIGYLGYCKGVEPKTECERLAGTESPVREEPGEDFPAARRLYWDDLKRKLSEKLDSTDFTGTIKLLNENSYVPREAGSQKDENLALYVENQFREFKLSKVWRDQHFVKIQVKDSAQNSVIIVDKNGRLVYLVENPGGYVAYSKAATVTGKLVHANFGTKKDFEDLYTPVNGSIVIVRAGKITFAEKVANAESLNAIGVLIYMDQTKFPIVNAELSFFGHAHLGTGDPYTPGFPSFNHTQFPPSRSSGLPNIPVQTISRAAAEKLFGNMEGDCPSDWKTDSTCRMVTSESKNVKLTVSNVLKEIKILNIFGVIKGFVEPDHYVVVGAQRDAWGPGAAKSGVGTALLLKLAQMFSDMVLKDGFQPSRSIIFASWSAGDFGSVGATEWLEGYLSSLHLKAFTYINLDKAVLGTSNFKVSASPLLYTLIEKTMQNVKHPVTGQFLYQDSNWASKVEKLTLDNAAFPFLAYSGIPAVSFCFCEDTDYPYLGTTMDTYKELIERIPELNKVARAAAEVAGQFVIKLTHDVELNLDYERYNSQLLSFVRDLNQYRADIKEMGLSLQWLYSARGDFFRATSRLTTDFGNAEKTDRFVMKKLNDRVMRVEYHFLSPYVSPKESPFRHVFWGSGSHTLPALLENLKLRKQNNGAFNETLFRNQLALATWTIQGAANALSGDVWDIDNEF
Experimental: Following a 1 hour incubation at 37° C., the cells were washed twice with 1 mL FACS buffer and then resuspended in 500 μL FACS buffer containing 7AAD to exclude dead cells in the analysis. The apparent binding constant was determined from a fit of the mean fluorescence versus the aptamer concentration using the Eq. 1 above.

[2] = target: transferrin receptor (TfR, CD71), recombinant from pAcGP67A-TfR (Homo sapiens, UniProt P02786 P02786:121-760); assay: filter; DPBS with Mg2+ and Ca2+, room temperature, 30 min; details: tags: His-tag; expressed in Sf9 insect cells, plasmid pAcGP67A-TfR (Addgene); chain copies: 2 inferred; label: 32P (filter), AF488 or Atto647N (cells); stem with 12-nt asymmetric bulge, C-rich bulge, GNRA tetraloop
Sequence of transferrin receptor (TfR, CD71), recombinant from pAcGP67A-TfR (P02786 121-760, one chain of several): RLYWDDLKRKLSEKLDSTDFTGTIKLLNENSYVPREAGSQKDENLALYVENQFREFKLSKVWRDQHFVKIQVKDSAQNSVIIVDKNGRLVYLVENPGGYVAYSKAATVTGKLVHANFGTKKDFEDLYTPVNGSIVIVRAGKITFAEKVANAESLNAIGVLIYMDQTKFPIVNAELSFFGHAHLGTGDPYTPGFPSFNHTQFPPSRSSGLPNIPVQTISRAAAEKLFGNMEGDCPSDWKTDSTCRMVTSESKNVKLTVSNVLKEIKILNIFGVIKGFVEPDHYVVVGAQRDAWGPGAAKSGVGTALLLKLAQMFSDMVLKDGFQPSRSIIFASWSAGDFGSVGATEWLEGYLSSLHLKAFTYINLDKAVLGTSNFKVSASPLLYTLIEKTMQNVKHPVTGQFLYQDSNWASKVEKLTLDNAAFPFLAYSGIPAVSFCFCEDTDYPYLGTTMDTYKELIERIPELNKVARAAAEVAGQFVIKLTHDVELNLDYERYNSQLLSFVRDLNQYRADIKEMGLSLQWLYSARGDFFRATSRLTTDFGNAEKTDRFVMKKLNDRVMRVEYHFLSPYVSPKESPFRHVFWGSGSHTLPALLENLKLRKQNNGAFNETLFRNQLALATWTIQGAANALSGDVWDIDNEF

Binder: GGGGGAUCAAUCCAAGGGACCCGGAAACGCUCCCUUACACCCC (ssRNA, 2'-F pyrimidines; 3' idT; 5' thiol C6) [c2.min]
- Kd [1]: 104 nM
- Kd [2]: 102 nM
